Data taken from PMC3272479 (Nature structural & molecular biology, 2012).

Biological target: the molecule itself
Experiment: crystal structure

B1: KirBac3.1 S129R mutant channel (natural protein)
chain: MTGGMKPPARKPRILNSDGSSNITRLGLEKRGWLDDHYHDLLTVSWPVFITLITGLYLVTNALFALAYLACGDVIENARPGSFTDAFFFSVQTMATIGYGKLIPIGPLANTLVTLEALCGMLGLAVAARLIYARFTRPTAGVLFSSRMVISDFEGKPTLMMRLANLRIEQIIEADVHLVLVRSEISQEGMVFRRFHDLTLTRSRSPIFSLSWTVMHPIDHHSPIYGETDETLRNSHSEFLVLFTGHHEAFAQNVHARHAYSCDEIIWGGHFVDVFTTLPDGRRALDLGKFHEIAQ
stoichiometry N: 4
